Test results taken from patent US20220064276A1 (SCHOLAR ROCK, published 2022).
Residue numbers refer to the chain shown, from its start. Read-outs that look alike come from different tables or passages of the source. Blank lines part the entries; values can stand above or below the binder they belong to.

What was measured:
[1] = molecular target: T1, human LTBP1-proTGFβ1 complex (human, UniProt Q14766 347-1721; P01137 30-390); test: Octet binning; competitor (immobilized second antibody) SR-AB13
T1 construct: Large latent complex: one presenting molecule disulfide-linked to a proTGFβ1 dimer; also called Hu LTBP1-proTGFβ1; huLTBP1 proTGFβ1
T1 sequence (Q14766 347-1721 limits assumed, chain 1 of 2): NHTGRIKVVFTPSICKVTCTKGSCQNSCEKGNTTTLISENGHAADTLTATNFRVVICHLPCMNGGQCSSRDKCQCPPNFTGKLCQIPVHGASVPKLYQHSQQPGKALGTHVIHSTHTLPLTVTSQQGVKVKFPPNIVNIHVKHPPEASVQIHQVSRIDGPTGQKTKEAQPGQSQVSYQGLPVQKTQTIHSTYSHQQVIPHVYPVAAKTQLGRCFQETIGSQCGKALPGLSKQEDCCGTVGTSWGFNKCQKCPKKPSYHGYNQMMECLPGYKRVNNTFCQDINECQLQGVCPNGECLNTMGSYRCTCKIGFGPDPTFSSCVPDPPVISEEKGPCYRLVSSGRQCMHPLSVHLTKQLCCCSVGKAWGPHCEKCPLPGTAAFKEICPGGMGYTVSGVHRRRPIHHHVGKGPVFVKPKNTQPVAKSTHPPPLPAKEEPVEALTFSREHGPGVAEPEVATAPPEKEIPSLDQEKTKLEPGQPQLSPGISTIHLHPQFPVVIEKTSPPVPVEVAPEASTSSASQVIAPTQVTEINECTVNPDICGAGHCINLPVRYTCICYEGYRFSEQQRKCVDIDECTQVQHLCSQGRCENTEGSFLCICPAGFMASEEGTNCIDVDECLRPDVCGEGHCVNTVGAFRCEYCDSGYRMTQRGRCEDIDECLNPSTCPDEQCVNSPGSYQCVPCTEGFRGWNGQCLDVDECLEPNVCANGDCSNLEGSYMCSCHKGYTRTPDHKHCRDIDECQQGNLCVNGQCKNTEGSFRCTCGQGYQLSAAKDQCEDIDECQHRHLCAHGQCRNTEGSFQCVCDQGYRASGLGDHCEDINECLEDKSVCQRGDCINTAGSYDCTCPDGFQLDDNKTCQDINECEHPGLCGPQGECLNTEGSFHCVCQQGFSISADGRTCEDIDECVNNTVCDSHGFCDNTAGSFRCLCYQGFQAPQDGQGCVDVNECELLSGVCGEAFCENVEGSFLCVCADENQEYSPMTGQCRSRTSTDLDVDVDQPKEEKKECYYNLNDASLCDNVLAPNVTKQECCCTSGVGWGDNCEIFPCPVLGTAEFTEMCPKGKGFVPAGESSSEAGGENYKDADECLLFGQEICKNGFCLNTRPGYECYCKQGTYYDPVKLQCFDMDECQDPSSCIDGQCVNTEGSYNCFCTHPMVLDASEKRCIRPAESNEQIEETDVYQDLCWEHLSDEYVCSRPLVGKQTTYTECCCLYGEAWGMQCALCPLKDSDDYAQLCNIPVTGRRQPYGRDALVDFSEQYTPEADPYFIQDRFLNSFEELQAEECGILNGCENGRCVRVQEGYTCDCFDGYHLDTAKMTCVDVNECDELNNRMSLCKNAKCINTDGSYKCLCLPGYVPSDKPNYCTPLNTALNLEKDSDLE
T1 sequence (P01137 30-390 limits assumed, chain 2 of 2): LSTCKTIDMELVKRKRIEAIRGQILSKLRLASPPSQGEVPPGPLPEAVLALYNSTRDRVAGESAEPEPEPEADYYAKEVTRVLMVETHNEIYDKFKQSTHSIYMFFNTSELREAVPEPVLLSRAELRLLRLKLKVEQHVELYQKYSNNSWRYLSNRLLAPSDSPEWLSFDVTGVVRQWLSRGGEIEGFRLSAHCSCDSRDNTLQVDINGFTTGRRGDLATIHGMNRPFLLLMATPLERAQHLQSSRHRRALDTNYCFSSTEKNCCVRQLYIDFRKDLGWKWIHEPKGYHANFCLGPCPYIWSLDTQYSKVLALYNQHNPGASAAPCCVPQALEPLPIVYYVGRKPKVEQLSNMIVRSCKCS
Method: (§1) 500 nM of human LTBP1-proTGFb1 complex was pre-incubated with 1 μM of each test antibody. After an overnight incubation, the LTBP1-proTGFβ1+first antibody was tested for binding to a second antibody which was immobilized to an Anti-Human IgG Fc Capture (AHC) sensor tip at 67 nM. The sensor tip was blocked with a negative control antibody (HuNeg) before seeing the LTBP1-proTGFβ1+first antibody.
(§2) Normalized responses less than 70% or less than 0.7 of the uninhibited interaction were considered antibodies that cross block.

[2] = molecular target: T2, LTBP-proTGFβ1: transfected human proTGFβ1 presented by endogenous LTBP1/3 of LN229 cells (human); test: cell-based or functional assay
T2 sequence (P01137 30-390): as the sequence (P01137 30-390 limits assumed, chain 2 of 2) above

[3] = molecular target: T3, mouse LTBP1-proTGFβ1 complex (mouse, UniProt Q8CG19 339-1712; P04202 30-390); test: cell-based or functional assay
[4] = molecular target: T1, human LTBP1-proTGFβ1 complex; test: Octet binning; competitor (immobilized second antibody) SR-AB10
Method: as §1, §2

[5] = molecular target: T1, human LTBP1-proTGFβ1 complex; test: Octet binning; competitor (immobilized second antibody) SR-AB2
Method: as §1, §2

[6] = molecular target: T4, human GARP-proTGFβ1 complex (human, UniProt Q14392 18-627; P01137 30-390, limits assumed); test: Octet (bio-layer interferometry), yeast expressed IgG1Agly antibody, antigen at a single 100 nM per Example 6
T4 construct: Exemplary entries; also called Hu GARP-proTGFβ1; huGARP proTGFb1
T4 sequence (Q14392 18-627 limits assumed, chain 1 of 2): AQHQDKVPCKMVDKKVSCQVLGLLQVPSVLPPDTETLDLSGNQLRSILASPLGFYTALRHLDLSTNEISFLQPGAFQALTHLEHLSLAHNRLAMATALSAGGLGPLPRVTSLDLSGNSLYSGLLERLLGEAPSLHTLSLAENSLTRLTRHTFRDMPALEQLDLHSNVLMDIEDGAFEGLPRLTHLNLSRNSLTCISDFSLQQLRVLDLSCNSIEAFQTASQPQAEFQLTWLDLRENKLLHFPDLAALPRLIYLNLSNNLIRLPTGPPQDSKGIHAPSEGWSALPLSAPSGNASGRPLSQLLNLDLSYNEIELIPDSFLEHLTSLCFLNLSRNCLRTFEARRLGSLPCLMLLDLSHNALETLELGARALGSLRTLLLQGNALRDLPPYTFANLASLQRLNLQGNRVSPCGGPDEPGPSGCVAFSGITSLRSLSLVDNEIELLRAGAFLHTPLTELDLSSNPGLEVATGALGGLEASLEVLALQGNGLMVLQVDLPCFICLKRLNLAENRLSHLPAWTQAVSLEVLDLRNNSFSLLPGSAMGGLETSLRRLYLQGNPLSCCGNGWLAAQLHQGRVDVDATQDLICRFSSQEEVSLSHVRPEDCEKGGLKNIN
T4 sequence (P01137 30-390 limits assumed, chain 2 of 2): as the sequence (P01137 30-390 limits assumed, chain 2 of 2) above

[7] = molecular target: T5, mouse LTBP3-proTGFβ1 complex (mouse, UniProt Q61810 41-1245; P04202 30-390, limits assumed); test: Octet BLI, IgG captured
T5 construct: Exemplary entries; also called Mo LTBP3-proTGFβ1; Murine LTBP3 proTGFb1
T5 sequence (Q61810 other isoform, or with tags, fused parts or gaps limits assumed, chain 1 of 2): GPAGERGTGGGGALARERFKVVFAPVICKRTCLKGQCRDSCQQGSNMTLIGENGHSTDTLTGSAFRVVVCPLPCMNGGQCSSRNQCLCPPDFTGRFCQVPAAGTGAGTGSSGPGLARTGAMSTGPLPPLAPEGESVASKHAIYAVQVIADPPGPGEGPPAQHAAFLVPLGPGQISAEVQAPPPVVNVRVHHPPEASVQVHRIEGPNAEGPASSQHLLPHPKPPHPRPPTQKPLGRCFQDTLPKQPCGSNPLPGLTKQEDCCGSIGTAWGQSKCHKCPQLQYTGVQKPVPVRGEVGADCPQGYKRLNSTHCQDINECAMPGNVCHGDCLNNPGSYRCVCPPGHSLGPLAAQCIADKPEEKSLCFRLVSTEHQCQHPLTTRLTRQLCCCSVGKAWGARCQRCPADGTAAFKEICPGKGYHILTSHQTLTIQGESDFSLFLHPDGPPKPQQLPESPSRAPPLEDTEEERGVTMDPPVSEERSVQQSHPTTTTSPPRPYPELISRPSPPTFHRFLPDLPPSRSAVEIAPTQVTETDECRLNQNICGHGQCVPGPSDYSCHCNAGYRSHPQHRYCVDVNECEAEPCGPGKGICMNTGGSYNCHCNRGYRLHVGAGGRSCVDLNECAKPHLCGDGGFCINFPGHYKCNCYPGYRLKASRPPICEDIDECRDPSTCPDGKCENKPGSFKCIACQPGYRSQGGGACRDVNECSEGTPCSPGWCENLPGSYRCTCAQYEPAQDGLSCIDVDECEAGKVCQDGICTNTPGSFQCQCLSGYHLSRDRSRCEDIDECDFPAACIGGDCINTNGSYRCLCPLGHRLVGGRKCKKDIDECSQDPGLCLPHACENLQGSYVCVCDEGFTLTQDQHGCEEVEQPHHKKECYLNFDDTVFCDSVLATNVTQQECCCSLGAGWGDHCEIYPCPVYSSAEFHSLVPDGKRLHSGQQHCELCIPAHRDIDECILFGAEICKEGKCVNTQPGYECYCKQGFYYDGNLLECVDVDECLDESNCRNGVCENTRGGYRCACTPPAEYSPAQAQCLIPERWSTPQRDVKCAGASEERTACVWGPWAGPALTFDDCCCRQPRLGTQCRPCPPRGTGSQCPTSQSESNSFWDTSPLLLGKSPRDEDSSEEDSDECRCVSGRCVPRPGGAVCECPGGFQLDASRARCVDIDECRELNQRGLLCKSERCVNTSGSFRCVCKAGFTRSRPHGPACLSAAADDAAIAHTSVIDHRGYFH
T5 sequence (P04202 30-390 limits assumed, chain 2 of 2): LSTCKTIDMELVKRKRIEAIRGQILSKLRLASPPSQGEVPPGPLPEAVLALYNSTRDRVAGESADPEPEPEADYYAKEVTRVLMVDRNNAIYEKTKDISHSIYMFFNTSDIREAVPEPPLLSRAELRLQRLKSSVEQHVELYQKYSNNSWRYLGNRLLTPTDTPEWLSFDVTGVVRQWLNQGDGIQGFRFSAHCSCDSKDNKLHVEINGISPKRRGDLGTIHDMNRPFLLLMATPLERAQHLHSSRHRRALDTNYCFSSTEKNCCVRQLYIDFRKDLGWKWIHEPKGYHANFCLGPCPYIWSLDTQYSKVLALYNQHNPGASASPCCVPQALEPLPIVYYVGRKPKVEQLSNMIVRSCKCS
Method: (§3) LTBP complex-specific antibodies from the first round of affinity maturation/optimization (SR-AB14, SR-AB16, SR-AB17, SR-AB18, SR-AB19) were selected for a second round of affinity maturation/optimization (i.e., CDR-H3 mutagenesis as described herein) and particular progeny antibodies (SR-AB20, SR-AB21, SR-AB22, SR-AB23, SR-AB24, SR-AB25, SR-AB26, SR-AB27, SR-AB28, and SR-AB29) were assessed for their ability to bind various proTGFβ1 constructs. Binding affinities of the optimized antibodies were measured by Octet against human LTBP1-proTGFβ1, human LTBP3-proTGFbl, mouse LTBP1-proTGFβ1, mouse LTBP3-proTGFbl, and GARP-proTGFβ1 complexes, essentially as described in Example 6. […] The antigens were allowed to associate for 3 minutes followed by a 5-minute dissociation. Kinetics buffer (ForteBio®) was used throughout the experiment, and KD was determined using a 1:1 fitting model for each antibody antigen pair.

[8] = molecular target: T3, mouse LTBP1-proTGFβ1 complex; test: Octet BLI, IgG captured
Method: as §3

[9] = molecular target: T2, LTBP-proTGFβ1: transfected human …; test: cell-based or functional assay; remark: listed apart in the source
[10] = molecular target: T3, mouse LTBP1-proTGFβ1 complex; test: cell-based or functional assay; remark: listed apart in the source
[11] = molecular target: T1, human LTBP1-proTGFβ1 complex; test: Octet binning; competitor (immobilized second antibody) SR-AB1
Method: as §1, §2

[12] = molecular target: T1, human LTBP1-proTGFβ1 complex; test: Octet (bio-layer interferometry), yeast expressed IgG1Agly antibody, antigen at a single 100 nM per Example 6, 1:1 fit; value printed under the panel
[13] = molecular target: T5, mouse LTBP3-proTGFβ1 complex; test: as above
[14] = molecular target: T3, mouse LTBP1-proTGFβ1 complex; test: as above
[15] = molecular target: T5, mouse LTBP3-proTGFβ1 complex; test: Octet (bio-layer interferometry), yeast expressed IgG1Agly antibody, antigen at a single 100 nM per Example 6
[16] = molecular target: T1, human LTBP1-proTGFβ1 complex; test: Octet BLI, IgG captured
Method: as §3

[17] = molecular target: T6, human LTBP3-proTGFβ1 complex (human, UniProt Q9NS15 44-1303; P01137 30-390, limits assumed); test: Octet BLI, IgG captured
T6 construct: Exemplary entries; also called Hu LTBP3-proTGFβ1; huLTBP3 proTGFb1
Method: as §3

[18] = molecular target: T2, LTBP-proTGFβ1: transfected human …; test: cell-based or functional assay; remark: listed apart in the source
[19] = molecular target: T3, mouse LTBP1-proTGFβ1 complex; test: cell-based or functional assay; remark: listed apart in the source
[20] = molecular target: T2, LTBP-proTGFβ1: transfected human …; test: cell-based or functional assay; remark: listed apart in the source
[21] = molecular target: T3, mouse LTBP1-proTGFβ1 complex; test: cell-based or functional assay; remark: listed apart in the source
[22] = molecular target: T6, human LTBP3-proTGFβ1 complex; test: Octet (bio-layer interferometry), yeast expressed IgG1Agly antibody, antigen at a single 100 nM per Example 6, 1:1 fit; value printed under the panel
[23] = molecular target: T1, human LTBP1-proTGFβ1 complex; test: SPR Biacore 8K, Fab over captured antigen; mean of 4
Method: (§4) A Biacore 8K system was employed to determine the monovalent binding affinity and the kinetic parameters for antigen binding of test antibodies. Association and dissociation kinetics of Fab fragments SR-AB42-HuFab, SR-AB63-HuFab and SR-AB43-HuFab to antigen complexes were measured, and resulting ka, kd and KD are provided below. Briefly, the binding kinetics were evaluated by surface plasmon resonance using Biacore 8K (GE Healthcare). Biotinylated capture antigens were immobilized to the chip (10 nM, ˜200 RU loading). A Biotin CAPture sensor chip was used to capture the biotinylated antigens. […] 0 nM was used as a reference. […] 0 nM was used as a reference. Multi-cycle kinetics was employed where each analyte concentration was injected in a separate cycle and the sensor chip surface was regenerated after each cycle. A11 the assays were carried out in freshly prepared 1× HBS-EP+ buffer (10 mM HEPES, 150 mM NaCl, 3 mM EDTA, 0.05% Tween20, pH 7.4). Data were fit globally to a 1:1 binding model to obtain the kinetic parameters. The sensorgram for 0 nM analyte concentration was used as reference.

[24] = molecular target: T6, human LTBP3-proTGFβ1 complex; test: SPR Biacore 8K, Fab over captured antigen
Procedure, shortened: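 Biotinylated antigen complexes captured on a Biotin CAPture chip (10 nM, ~200 RU), with Fab fragments injected as analyte by multi-cycle kinetics and regeneration between cycles. Runs in HBS-EP+ pH 7.4, 0 nM analyte as reference; ka, kd and KD from a global 1:1 binding fit.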

[25] = molecular target: T1, human LTBP1-proTGFβ1 complex; test: SPR (Biacore 8K), biotinylated antigen captured, Fab as analyte, 1:1 fit (Example 9); table beside the sensorgrams
Method: as §4

[26] = molecular target: T6, human LTBP3-proTGFβ1 complex; test: as above
Method: as §4

[27] = molecular target: T7, human LRRC33-proTGFβ1 complex (human, UniProt Q86YC3 19-650; P01137 30-390, limits assumed); test: SPR Biacore 8K, Fab up to 100 nM over captured antigen
T7 construct: Exemplary entries; also called huLRRC33 proTGFb1; HuLRRC33-ProTGFb1
T7 sequence (Q86YC3 19-650 limits assumed, chain 1 of 2): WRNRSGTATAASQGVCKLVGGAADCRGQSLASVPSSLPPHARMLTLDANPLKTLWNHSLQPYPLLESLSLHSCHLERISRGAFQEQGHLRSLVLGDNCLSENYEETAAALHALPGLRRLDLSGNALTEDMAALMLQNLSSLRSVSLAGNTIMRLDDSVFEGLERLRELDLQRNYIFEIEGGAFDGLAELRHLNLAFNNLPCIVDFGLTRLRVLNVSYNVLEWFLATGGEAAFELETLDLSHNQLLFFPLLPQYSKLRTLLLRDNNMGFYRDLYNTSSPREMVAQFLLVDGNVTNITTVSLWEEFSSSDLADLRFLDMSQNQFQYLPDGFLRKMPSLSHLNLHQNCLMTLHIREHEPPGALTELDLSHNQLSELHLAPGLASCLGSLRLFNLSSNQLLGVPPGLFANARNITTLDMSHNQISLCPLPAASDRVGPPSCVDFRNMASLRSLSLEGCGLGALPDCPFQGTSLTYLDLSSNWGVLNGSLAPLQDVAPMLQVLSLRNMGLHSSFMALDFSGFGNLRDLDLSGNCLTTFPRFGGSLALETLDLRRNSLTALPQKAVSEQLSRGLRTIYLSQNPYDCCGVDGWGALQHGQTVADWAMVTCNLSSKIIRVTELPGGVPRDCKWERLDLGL
T7 sequence (P01137 30-390 limits assumed, chain 2 of 2): as the sequence (P01137 30-390 limits assumed, chain 2 of 2) above
Method: as §4

[28] = molecular target: T4, human GARP-proTGFβ1 complex; test: as above
Method: as §4

normalized response [1]: 1.27 fraction of uninhibited binding | IC50, endogenous hLTBP assay (CAGA12 luciferase) [2]: 3.64 nM | IC50, mLTBP1 assay (CAGA12 luciferase) [3]: 119 nM | normalized response [4]: 0.51 fraction of uninhibited binding | normalized response [5]: 1.53 fraction of uninhibited binding | binding result [6]: no binding (tested: 100 nM) | Kd [7]: 23 nM | Kd [8]: 14.2 nM | IC50, endogenous hLTBP assay (CAGA12 luciferase) [9]: 3.64 nM | IC50, mLTBP1 assay (CAGA12 luciferase) [10]: 119 nM | normalized response [11]: 0.82 fraction of uninhibited binding | Kd [12]: 308 nM | Kd [13]: 86 nM | Kd [14]: 79 nM
B1: SR-AB10 (antibody, IgG1, V domains shown)
VH: QLQLQESGGGVVQPGRSLRLSCAASGFTFNNYPIHWVRQAPGKGLEWVAVMSYDGINKYYADSVKGRFTISRDNSKNTLYLQMNSLRAEDTAVYYCARPRIAARRGGFDYWGQGTLVTVSS
VL: NFMLTQPHSVSESPGKTVTISCTRSSGNIDNNYVQWYQQRPGSSPTTVIYEDNQRPSGVPDRFSGSIDSSSNSASLTISGLKTEDEADYYCQSYDSDNQGVVFGGGTKLTVL
notes: Parent antibody

normalized response [1]: 0.47 fraction of uninhibited binding | normalized response [4]: 1.38 fraction of uninhibited binding | normalized response [5]: 1.29 fraction of uninhibited binding | binding result [15]: no binding (tested: 100 nM) | binding result [6]: no binding (tested: 100 nM) | Kd [16]: 39.2 nM | Kd [17]: 35.9 nM | Kd [8]: 59.5 nM | normalized response [11]: 1.08 fraction of uninhibited binding | IC50, endogenous hLTBP assay (CAGA12 luciferase) [18]: 4.83 nM | IC50, mLTBP1 assay (CAGA12 luciferase) [19]: 25.4 nM | IC50, endogenous hLTBP assay (CAGA12 luciferase) [20]: 4.83 nM | IC50, mLTBP1 assay (CAGA12 luciferase) [21]: 25.4 nM | Kd [12]: 148 nM | Kd [22]: 71 nM | Kd [14]: 102 nM
B2: SR-AB13 (antibody, IgG1, V domains shown)
VH: QLQLQESGPGLVKPSETLSLTCTVSGGSISSSSYYWGWIRQPPGKGLEWIGSISYSGSTYYNPSLKSRVTISVDTSKNQFSLKLSSVTAADTAVYYCARDPSYDSIAGMDVWGQGTTVTVSS
VL: DIQLTQSPSSLSASVGDRVTITCRASQSISSYLNWYQQKPGKAPKLLIYAASNLQSGVPSRFSGSGSGTDFTLTISSLQPEDFATYYCQQSFDFPFTFGGGTKVEIK
notes: Parent antibody; also called SR-13

Kd [23]: 0.000103 nM | koff [23]: 3.82e-08 s⁻¹ | kon [23]: 371000 M⁻¹ s⁻¹ | Kd [24]: 0.127 nM | koff [24]: 4.99e-05 s⁻¹ | kon [24]: 394000 M⁻¹ s⁻¹ | Kd [25]: 0.03 nM | Kd [26]: 0.1 nM | Kd [27]: 216 nM | koff [27]: 0.00108 s⁻¹ | kon [27]: 5000 M⁻¹ s⁻¹ | Kd [28]: 349 nM | koff [28]: 0.00093 s⁻¹ | kon [28]: 2660 M⁻¹ s⁻¹
B3: SR-AB63-HuFab (Fab, V domains shown)
VH: B2 VH with S30R, G57A, S58T, R99G, D110Q
VL: B2 VL with F94W, F96L
notes: Human Fab
